{"source": "patent US7528109", "about": "(GEORGETOWN UNIVERSITY, dated 2009)", "key": {"[1]": {"biological_target": "T1, ALK (anaplastic lymphoma kinase) receptor, full length, expressed on cells (human, UniProt Q9UM73 19-1620)", "T1 construct": "U87MG cells carry endogenous human ALK; also called PTNR; PTN receptor", "T1 sequence (Q9UM73 other isoform, or with tags, fused parts or gaps limits assumed)": "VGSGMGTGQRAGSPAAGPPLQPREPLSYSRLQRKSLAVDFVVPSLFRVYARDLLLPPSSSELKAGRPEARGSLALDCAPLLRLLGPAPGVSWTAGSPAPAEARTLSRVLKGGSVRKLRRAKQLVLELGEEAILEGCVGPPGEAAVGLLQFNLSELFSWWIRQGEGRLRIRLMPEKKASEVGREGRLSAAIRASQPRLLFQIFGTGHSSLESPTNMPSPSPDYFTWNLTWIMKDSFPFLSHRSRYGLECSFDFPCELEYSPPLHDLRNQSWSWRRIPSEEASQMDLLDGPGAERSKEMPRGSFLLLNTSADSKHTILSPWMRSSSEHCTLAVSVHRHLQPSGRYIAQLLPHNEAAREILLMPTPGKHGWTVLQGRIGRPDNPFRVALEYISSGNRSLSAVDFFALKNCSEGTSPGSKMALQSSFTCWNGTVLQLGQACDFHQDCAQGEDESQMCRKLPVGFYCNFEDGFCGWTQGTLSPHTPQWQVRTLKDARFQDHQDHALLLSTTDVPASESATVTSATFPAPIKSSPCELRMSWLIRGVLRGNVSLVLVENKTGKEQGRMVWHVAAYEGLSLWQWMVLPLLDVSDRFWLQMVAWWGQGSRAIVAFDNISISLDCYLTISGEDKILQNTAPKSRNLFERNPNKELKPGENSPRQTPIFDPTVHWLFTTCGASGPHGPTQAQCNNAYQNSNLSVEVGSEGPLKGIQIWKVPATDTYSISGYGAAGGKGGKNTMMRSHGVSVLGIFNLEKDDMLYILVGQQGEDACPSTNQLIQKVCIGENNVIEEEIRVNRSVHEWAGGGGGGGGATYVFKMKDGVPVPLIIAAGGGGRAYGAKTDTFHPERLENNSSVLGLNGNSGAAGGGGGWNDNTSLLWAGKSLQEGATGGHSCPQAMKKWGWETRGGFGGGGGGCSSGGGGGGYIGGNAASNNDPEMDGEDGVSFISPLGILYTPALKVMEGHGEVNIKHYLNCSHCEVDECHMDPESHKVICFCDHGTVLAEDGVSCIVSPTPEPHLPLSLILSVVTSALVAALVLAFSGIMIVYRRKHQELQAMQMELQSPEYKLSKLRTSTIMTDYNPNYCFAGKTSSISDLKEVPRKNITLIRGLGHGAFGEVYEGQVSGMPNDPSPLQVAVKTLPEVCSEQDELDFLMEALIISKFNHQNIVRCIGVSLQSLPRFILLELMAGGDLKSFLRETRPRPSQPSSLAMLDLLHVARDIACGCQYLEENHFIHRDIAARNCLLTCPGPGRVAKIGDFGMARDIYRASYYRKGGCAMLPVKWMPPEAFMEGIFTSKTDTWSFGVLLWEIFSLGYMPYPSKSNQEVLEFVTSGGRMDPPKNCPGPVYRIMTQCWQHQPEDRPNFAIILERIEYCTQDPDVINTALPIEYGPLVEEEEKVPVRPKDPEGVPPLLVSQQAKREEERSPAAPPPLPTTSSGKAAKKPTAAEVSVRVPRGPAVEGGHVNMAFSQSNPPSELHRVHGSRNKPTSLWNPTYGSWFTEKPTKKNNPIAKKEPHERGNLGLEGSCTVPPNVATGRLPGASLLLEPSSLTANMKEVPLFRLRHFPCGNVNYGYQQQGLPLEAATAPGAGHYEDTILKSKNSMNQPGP", "experiment": "saturation binding of 35S-labeled PTN to 32D/ALK cells, non-linear regression", "procedure": "For this, ALK-negative mouse hematopoietic cell line 32D was used which grows in suspension culture and expressed the ALK protein in these cells. Also used was ^35S-labeled PTN from metabolic labeling experiments as a ligand for the receptor binding studies. Briefly, cell lysates were then prepared and a total of 3 mg of cellular proteins subjected to immunoprecipitation as described. (Souttou et al., 1997). For uncoupled antibodies, Sepharose-bound protein G (Gammabind plus, Amersham/Pharmacia) was used to precipitate immunocomplexes. Antibodies were anti-phosphotyrosine (agarose-coupled 4G10, 30 µl; UBI, Lake Placid NY), anti-PTNR (a cocktail of antibodies from Santa Cruz Biotechnology, Santa Cruz Calif. and from Accurate Chemicals, Westburg N.Y.), anti-IRS-1 (3 µg of rabbit IgG). Resulting precipitates were analyzed by SDS polyacrylamide gel electrophoresis. Experimental procedures for immunoblots for phosphotyrosine, IRS-1 (anti-IRS-1, Transduction Laboratories, Lexington Ky.), PLC-gamma (anti-PLC-gamma, UBI)and PI3-kinase (UBI) using unlabelled cells as described (Souttou et al., 1997).\nSaturation binding of radiolabeled PTN to 32D/ALK (filled symbols) and 32D/control cells (open symbols) (FIG. 2b). Data were pooled from two independent experiments with triplicate repeat measurements of data points. […]"}, "[2]": {"biological_target": "T1, ALK (anaplastic lymphoma kinase) …", "experiment": "saturation binding of 35S-labeled PTN to 32D/ALK cells"}}, "data": [{"binder": "pleiotrophin (PTN), purified from the culture supernatant of cells transfected with the human PTN cDNA (ligand, UniProt P21246 33-168, looked up, also called PTN ligand; radiolabeled PTN) GKKEKPEKKVKKSDCGEWQWSVCVPTSGDCGLGTREGTRTGAECKQTMKTQRCKIPCNWKKQFGAECKYQFQAWGECDLNTALKTRTGSLKRALHNAECQKTVTISKPCGKLTKPKPQAESKKKKKEGKKQEKMLD", "values": [{"measurement": "Kd", "setting": "[1]", "result": 0.032, "unit": "nM"}, {"measurement": "Kd", "setting": "[2]", "result": "0.03 to 0.04", "unit": "nM"}]}]}
